Tests used:
Rabbit ANG2 = biological target: T1, Rabbit ANG2 (rabbit, UniProt G1T9B3 19-496); experiment: SPR, Biacore T200, antibody captured on Protein G chip, experiment 1
T1 sequence: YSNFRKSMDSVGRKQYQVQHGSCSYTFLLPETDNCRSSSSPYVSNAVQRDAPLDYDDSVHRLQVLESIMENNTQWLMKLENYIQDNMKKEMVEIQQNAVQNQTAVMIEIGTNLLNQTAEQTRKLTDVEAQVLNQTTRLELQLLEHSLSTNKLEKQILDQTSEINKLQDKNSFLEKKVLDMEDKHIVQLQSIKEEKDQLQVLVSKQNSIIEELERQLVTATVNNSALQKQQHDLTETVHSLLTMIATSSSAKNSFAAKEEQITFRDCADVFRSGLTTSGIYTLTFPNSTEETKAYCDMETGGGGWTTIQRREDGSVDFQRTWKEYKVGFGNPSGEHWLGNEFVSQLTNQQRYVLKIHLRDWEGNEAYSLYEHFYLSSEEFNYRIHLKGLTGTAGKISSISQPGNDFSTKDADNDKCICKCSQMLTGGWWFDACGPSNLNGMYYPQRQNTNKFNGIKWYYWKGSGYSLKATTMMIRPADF
Method: (§1) The antibody was diluted to 1 μg/mL and was captured onto channel 2 for 30 s, and channel 1 was the blank control channel. The gradient-diluted Human ANG2, Rhesus ANG2, Rabbit ANG2, Rat ANG2 and Mouse ANG2 were sequentially injected into channels 1 and 2 of the chip, from low to high concentrations (0-32 nM), at a flow rate of 30 μL/min, with one concentration per cycle, and with 180 s association time and 1200 s dissociation time at 25° C. Finally, the chip was regenerated using Glycine pH 1.5 at 30 μL/min for 30 s. The affinity assay was repeated three times.

human Ang2 [1] = biological target: T2, human Ang2 (human, UniProt O15123 19-496, limits assumed); experiment: as above
T2 construct: also called hAng2; h Ang2
T2 sequence: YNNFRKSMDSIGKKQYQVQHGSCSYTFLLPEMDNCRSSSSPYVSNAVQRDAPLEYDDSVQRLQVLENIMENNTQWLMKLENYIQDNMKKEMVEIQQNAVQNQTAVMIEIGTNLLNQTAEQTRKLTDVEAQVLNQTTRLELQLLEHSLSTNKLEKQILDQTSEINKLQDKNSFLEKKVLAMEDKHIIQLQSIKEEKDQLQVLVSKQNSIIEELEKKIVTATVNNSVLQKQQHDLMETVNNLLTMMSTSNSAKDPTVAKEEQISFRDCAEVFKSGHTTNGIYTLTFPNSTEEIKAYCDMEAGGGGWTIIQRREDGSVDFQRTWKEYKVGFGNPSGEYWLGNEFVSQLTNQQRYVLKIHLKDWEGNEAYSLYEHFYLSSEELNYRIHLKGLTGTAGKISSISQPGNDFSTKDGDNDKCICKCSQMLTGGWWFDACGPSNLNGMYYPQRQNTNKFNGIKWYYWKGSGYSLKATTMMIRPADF
Method: as §1

Rhesus ANG2 [2] = biological target: T3, Rhesus ANG2 (rhesus, UniProt F6QXG0 19-496); experiment: as above
T3 sequence: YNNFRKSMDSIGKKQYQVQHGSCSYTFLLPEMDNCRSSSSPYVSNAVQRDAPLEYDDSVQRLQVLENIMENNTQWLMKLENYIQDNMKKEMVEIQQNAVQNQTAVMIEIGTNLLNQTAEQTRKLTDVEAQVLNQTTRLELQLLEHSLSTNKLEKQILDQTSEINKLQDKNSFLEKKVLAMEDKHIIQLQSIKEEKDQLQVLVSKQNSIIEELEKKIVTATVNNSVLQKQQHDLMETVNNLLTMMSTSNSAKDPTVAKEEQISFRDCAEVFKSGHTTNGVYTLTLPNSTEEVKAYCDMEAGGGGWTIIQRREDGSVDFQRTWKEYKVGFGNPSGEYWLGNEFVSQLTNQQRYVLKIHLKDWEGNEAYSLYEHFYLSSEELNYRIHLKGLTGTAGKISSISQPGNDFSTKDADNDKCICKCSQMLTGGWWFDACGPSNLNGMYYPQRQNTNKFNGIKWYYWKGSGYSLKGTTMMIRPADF
Method: as §1

human Ang2 [3] = biological target: T2, human Ang2; experiment: SPR, Biacore T200, mean of three experiments
Method: as §1

Rhesus ANG2 [4] = biological target: T3, Rhesus ANG2; experiment: SPR, Biacore T200, mean of three experiments
Method: as §1

Human Ang1 = biological target: T4, Human Ang1 (human, UniProt Q15389 20-498, limits assumed); experiment: ForteBio BLI, antibody on AHQ sensor
T4 construct: also called hAng1
T4 sequence (looked up): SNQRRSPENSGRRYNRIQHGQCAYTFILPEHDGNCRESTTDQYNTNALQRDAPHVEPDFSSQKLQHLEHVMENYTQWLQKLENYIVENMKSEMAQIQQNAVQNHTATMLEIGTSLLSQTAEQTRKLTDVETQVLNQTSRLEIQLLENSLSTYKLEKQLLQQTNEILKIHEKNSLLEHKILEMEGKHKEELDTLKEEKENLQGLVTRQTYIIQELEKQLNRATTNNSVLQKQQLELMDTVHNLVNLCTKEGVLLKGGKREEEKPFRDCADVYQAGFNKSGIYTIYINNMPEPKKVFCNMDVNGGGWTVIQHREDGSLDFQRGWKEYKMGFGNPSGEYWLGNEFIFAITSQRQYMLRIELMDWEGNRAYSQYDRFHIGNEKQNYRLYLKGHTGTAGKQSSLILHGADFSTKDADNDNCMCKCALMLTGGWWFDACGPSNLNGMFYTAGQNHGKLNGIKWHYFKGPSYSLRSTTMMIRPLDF
Method: The equilibrium dissociation constants (KD) of the above exemplary antibodies of the present invention binding to human Ang2 (h Ang2), cynomolgus monkey Ang2 (cAng2), murine Ang2 (mAng2), and human Ang1 (hAng1) were determined using the biological optical interferometry (ForteBio) assay.
The ForteBio affinity assay was performed according to the existing method (Estep, P et al., High throughput solution-based measurement of antibody-antigen affinity and epitope binning. MAbs, 2013.5 (2): p. 270-8). Briefly, the sensor was equilibrated in the assay buffer off-line for 30 min, followed by on-line detection for 60 s to establish the baseline. Then the purified antibodies obtained as described above were loaded on-line onto an AHQ sensor (ForteBio) for ForteBio affinity assay. The sensors with loaded antibodies were exposed to 100 nM of hAng2, cAng2, mAng2, and hAng1 antigens for 5 min, and then were transferred into the assay buffer for dissociation for 5 min to determine the dissociation rate. Kinetic analysis was performed using a 1:1 binding model.

- Kd (Rabbit ANG2): 0.518 nM
- koff (Rabbit ANG2): 0.000153 s⁻¹
- kon (Rabbit ANG2): 294000 M⁻¹ s⁻¹
- Kd (human Ang2 [1]): 0.0694 nM
- koff (human Ang2 [1]): 1.74e-05 s⁻¹
- kon (human Ang2 [1]): 250000 M⁻¹ s⁻¹
- Kd (Rhesus ANG2 [2]): 0.183 nM
- koff (Rhesus ANG2 [2]): 4.87e-05 s⁻¹
- kon (Rhesus ANG2 [2]): 266000 M⁻¹ s⁻¹
- Kd (human Ang2 [3]): 0.0457 nM
- Kd (Rhesus ANG2 [4]): 0.146 nM
- binding result (Human Ang1): no binding (tested: 100 nM)
B1: humanized antibody hz81H10.4 (antibody, human IgG1, kappa, V domains shown)
VH: EVQLVESGGGLVKPGGSLRLSCAASGFTFSNYWMNWVRQAPGKGLEWVAEIRLKSNNYATHYAESVKGRFTISRDVSKNTVYLQMNSLKTEDTAVYYCTDTAPFAYWGQGTLVTVSS
VL: DIQMTQSPSSLSASVGDRVTITCKASQDVGTDVAWYQQKPGKAPKLLIYWASTRHTGVPSRFSGSGSGTDFTLTISSLQPEDFATYYCQQYSSYPLTFGGGTKVEIKR
notes: also called IBI335

— patent US20240239881A1 (Innovent, published 2024)
